The record followed here is patent US20250283060 (BOARD OF REGENTS, THE UNIVERSITY OF TEXAS SYSTEM, published 2025).

The target in series [1] is NPT7 v443 with NLS removed (synthetic construct). In words: cell_activity; ZsGreen reporter in HEK293T, 48 h, cytoplasmic. The note with it: tags: NLS removed.
Series [2] has as its target NPT7 variant ES-443 (V3) (synthetic construct). Nature of the series: cell_activity; ZsGreen reporter fluorescence in S. cerevisiae; reflects transcription and capping. The note with it: tags: SV40 NLS N-terminal.

B1: T7 promoter WT (dsDNA)
DNA 1: TAATACGACTCACTATA
DNA 2: TATAGTGAGTCGTATTA
For B1, the binding signal in series [1] was about 1.8 fold vs WT NPT7; in series [2], 76 fold vs K282A control.
